Values of other authors, collected in publication PMC3292877.
pKd: −log10 of the molar value.

Biological target: ERK2 (Rattus norvegicus) (UniProt P63086)

ERK2 (from UniProt P63086)
pKd: 8.15
